What was measured:
Experiment in all cases: competition with 125I probe peptide, purified HLA
HLA DRB1*0101 (human) = biological target: HLA DRB1*0101 (human)
HLA DRB1*0301 (human) = biological target: HLA DRB1*0301 (human)
HLA DRB1*0401 (human) = biological target: HLA DRB1*0401 (human)
HLA DRB1*0404 (human) = biological target: HLA DRB1*0404 (human)
HLA DRB1*0405 (human) = biological target: HLA DRB1*0405 (human)
HLA DRB1*0701 (human) = biological target: HLA DRB1*0701 (human)
HLA DRB1*0802 (human) = biological target: HLA DRB1*0802 (human)
HLA DRB1*0901 (human) = biological target: HLA DRB1*0901 (human)
HLA DRB1*1101 (human) = biological target: HLA DRB1*1101 (human)
HLA DRB1*1201 (human) = biological target: HLA DRB1*1201 (human)
HLA DRB1*1302 (human) = biological target: HLA DRB1*1302 (human)
HLA DRB1*1501 (human) = biological target: HLA DRB1*1501 (human)
HLA DRB3*0101 (human) = biological target: HLA DRB3*0101 (human)
HLA DRB4*0101 (human) = biological target: HLA DRB4*0101 (human)
HLA DRB5*0101 (human) = biological target: HLA DRB5*0101 (human)

Work on TGRCIACWRRPRTET (modifications not checked) [HPV31.E6.132 HTL epitope] yielded an IC50 (HLA DRB1*0101 (human)) of 3170 nM, an IC50 (HLA DRB1*0301 (human)) of 1030 nM and an IC50 (HLA DRB1*0401 (human)) of 758 nM. For the same binder, the IC50 (HLA DRB1*0404 (human)) was 1150 nM, the IC50 (HLA DRB1*0405 (human)) was 733 nM and the IC50 (HLA DRB1*0701 (human)) was 11500 nM. It also gave an IC50 (HLA DRB1*0802 (human)) of 512 nM, an IC50 (HLA DRB1*0901 (human)) of 13600 nM and an IC50 (HLA DRB1*1101 (human)) of 158 nM. The IC50 (HLA DRB1*1201 (human)) was 4950 nM, the IC50 (HLA DRB1*1302 (human)) was 2770 nM and the IC50 (HLA DRB1*1501 (human)) was 84 nM. The IC50 (HLA DRB3*0101 (human)) was 5960 nM, the IC50 (HLA DRB4*0101 (human)) was 225 nM and the IC50 (HLA DRB5*0101 (human)) was 6050 nM.

Source: patent US20100272750A1
